Results reported in US20240317834A1, “COMPOSITIONS AND METHODS FOR NEUROLOGICAL DISEASES” (CODA BIOTHERAPEUTICS, INC., priority 2020, published 2024).

Test system: Lenti-X 293T cells
Assay: YFP fluorescence quenching anion reporter plate reader assay of engineered receptors stimulated with acetylcholine or a non-native ligand
Format: cell-based
Method in brief: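 Lenti-X 293T cells carrying a YFP anion reporter were transiently transfected with channel DNA and assayed the next day in HEPES-buffered ECS at pH 7.2. Ligand (acetylcholine or non-native ligand) was added in NaI-substituted ECS. Percent quench was the mean of the last 10 s relative to the 15 s pre-addition baseline.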

B1: CODA339: engineered chimeric LGIC receptor, L131D in SEQ ID NO: 33 (protein)
chain: MRCSPGGVWLALAASLLHVSLQGEFQRKLYKELVKNYNPLERPVANDSQPLTVYFSLSLLQIMDVDEKNQVLTTNIWLQMSWTDHYLQWNVSEYPGVKTVRFPDGQIWKPDILLYNSADERFDATFHTNVDVNSSGHCQYLPPGIFKSSCPMDLKNFPMDVQTCKLKFGSWSYGGWSLDLQMQEADISGYIPNGEWDLVGIPGKRSERFYECCKEPYPDVTFTVTMRRRMGYYLIQMYIPSLLIVILSWISFWINMDAAPARVGLGITTVLTMTTQSSGSRASLPKVSYVKAIDIWMAVCLLFVFSALLEYAAVNFVSRQHKELLRFRRKRRHHKSPMLNLFQEDEAGEGRFNFSAYGMGPACLQAKDGISVKGANNSNTTNPPPAPSKSPEEMRKLFIQRAKKIDKISRIGFPMAFLIFNMFYWIIYKIVRREDVHNQ
modifications: synthetic sequence of chimeric LGIC
1 nM CNL001, first column
  YFP fluorescence quenching using CNL001: 73.711%
1 nM CNL001, second column
  YFP fluorescence quenching using CNL001: 76.44%
1 nM brd
  YFP fluorescence quenching using TC-5619/Bradanicline: 4.12%
3 nM brd
  YFP fluorescence quenching using TC-5619/Bradanicline: 19.15%
3 nM var, first column
  YFP fluorescence quenching using Varenicline: −0.902
3 nM var, second column
  YFP fluorescence quenching using Varenicline: −7.62
10 nM CNL001, first column
  YFP fluorescence quenching using CNL001: 77.049%
10 nM CNL001, second column
  YFP fluorescence quenching using CNL001: 77.76%
10 nM brd
  YFP fluorescence quenching using TC-5619/Bradanicline: 68.98%
30 nM brd
  YFP fluorescence quenching using TC-5619/Bradanicline: 77.29%
30 nM fac
  YFP fluorescence quenching using Facinicline: 12.67
30 nM var, first column
  YFP fluorescence quenching using Varenicline: −6.009
30 nM var, second column
  YFP fluorescence quenching using Varenicline: −3.447
50 nM CNL001, first column
  YFP fluorescence quenching using CNL001: 77.882%
50 nM CNL001, second column
  YFP fluorescence quenching using CNL001: 78.708%
50 nM abt
  YFP fluorescence quenching using ABT-126: −16.65%
100 nM CNL001, first column
  YFP fluorescence quenching using CNL001: 79.567%
100 nM CNL001, second column
  YFP fluorescence quenching using CNL001: 79.273%
100 nM CNL002
  YFP fluorescence quenching using CNL002: 12.83%
100 nM abt
  YFP fluorescence quenching using ABT-126: −12.3%
100 nM azd0328
  YFP fluorescence quenching using AZD-0328: 62.87%
100 nM brd
  YFP fluorescence quenching using TC-5619/Bradanicline: 81.41%
300 nM abt
  YFP fluorescence quenching using ABT-126: 18.5%
300 nM azd0328
  YFP fluorescence quenching using AZD-0328: 77.03%
300 nM brd
  YFP fluorescence quenching using TC-5619/Bradanicline: 75.79%
300 nM fac
  YFP fluorescence quenching using Facinicline: 80.4
300 nM var, first column
  YFP fluorescence quenching using Varenicline: 49.328
300 nM var, second column
  YFP fluorescence quenching using Varenicline: 47.685
500 nM var, first column
  YFP fluorescence quenching using Varenicline: 66.7
500 nM var, second column
  YFP fluorescence quenching using Varenicline: 64.798
1 uM CNL001, first column
  YFP fluorescence quenching using CNL001: 79.992%
1 uM CNL001, second column
  YFP fluorescence quenching using CNL001: 79.927%
1 uM CNL002
  YFP fluorescence quenching using CNL002: 77.73%
1 uM abt
  YFP fluorescence quenching using ABT-126: 59.09%
1 uM brd
  YFP fluorescence quenching using TC-5619/Bradanicline: 82.26%
1 uM tc6987
  YFP fluorescence quenching using TC-6987: 50
1 uM var, first column
  YFP fluorescence quenching using Varenicline: 70.85
1 uM var, second column
  YFP fluorescence quenching using Varenicline: 69.038
3 uM tc6987
  YFP fluorescence quenching using TC-6987: 80.39
5 uM tc6987
  YFP fluorescence quenching using TC-6987: 79.93
10 uM fac
  YFP fluorescence quenching using Facinicline: 82.18
10 uM tc6987
  YFP fluorescence quenching using TC-6987: 80.99
30 uM CNL002
  YFP fluorescence quenching using CNL002: 80.58%
30 uM azd0328
  YFP fluorescence quenching using AZD-0328: 78.63%
30 uM fac
  YFP fluorescence quenching using Facinicline: 82.14
30 uM tc6987
  YFP fluorescence quenching using TC-6987: 83.11
50 uM tc6987
  YFP fluorescence quenching using TC-6987: 83.18
100 uM tc6987
  YFP fluorescence quenching using TC-6987: 82.16
300 uM tc6987
  YFP fluorescence quenching using TC-6987: 64.58
500 uM tc6987
  YFP fluorescence quenching using TC-6987: 76.77
TC-6683 30 nM
  percent quench of YFP fluorescence, 30 nM TC-6683: −18.32%
TC-6683 300 nM
  percent quench of YFP fluorescence, 300 nM TC-6683: −17.25%
TC-6683 3 uM
  percent quench of YFP fluorescence, 3 uM TC-6683: −10%
TC-6683 30 uM
  percent quench of YFP fluorescence, 30 uM TC-6683: −8.51%
TC-6683 100 uM
  percent quench of YFP fluorescence, 100 uM TC-6683: −9.77%
Acetylcholine 10 uM
  percent quench of YFP fluorescence, 10 uM ach: 4.56%
Acetylcholine 100 uM
  percent quench of YFP fluorescence, 100 uM ach: 10.19%
Acetylcholine 1 mM
  percent quench of YFP fluorescence, 1 mM ach: 77.34%
Acetylcholine 3 mM
  percent quench of YFP fluorescence, 3 mM ach: 77.79%
